For one substance, MglA GTPase activity, malachite green-based assay; 3 μM MglA-His6 mixed 1:2:2 with MglB and Strep-RomY (against ~18 with MglB alone) and MglA GTPase activity, regenerative coupled enzyme assay; 3 μM MglA-His6 mixed 1:2:2 with MglB and Strep-RomY (against ~12 with MglB alone) results are on record in article PMC9481161.

The experiment concerns the target His6-MglB (Myxococcus xanthus) (UniProt Q1DB03).
Sequence of UniProt Q1DB03 (Q1DB03 entry or part of it): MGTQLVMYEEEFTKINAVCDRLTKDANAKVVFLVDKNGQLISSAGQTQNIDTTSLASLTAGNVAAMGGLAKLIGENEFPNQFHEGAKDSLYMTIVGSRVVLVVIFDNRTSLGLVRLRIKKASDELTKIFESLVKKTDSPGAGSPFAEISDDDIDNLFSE

Strep-RomY (natural protein) displayed a MglA GTPase activity, malachite green-based assay; 3 μM MglA-His6 mixed 1:2:2 with MglB and Strep-RomY (against ~18 with MglB alone) of 31 GTP/MglA/hr; a MglA GTPase activity, regenerative coupled enzyme assay; 3 μM MglA-His6 mixed 1:2:2 with MglB and Strep-RomY (against ~12 with MglB alone) of 25 GTP/MglA/hr.
